# Target: T1, α5β1 (Homo sapiens, UniProt P05556+P08648)
# T1 construct: endogenous in cells
# Assay: Flow cytometry, binding to other RGD-recognizing integrins
# Experimental: Flow cytometry. scFv binding to human tumor cells was analyzed by flow cytometry, initially with cloned scFv phage and then with purified scFv protein. Per sample, 2×10^5 tumor cells were blocked with goat serum and incubated either with scFv phage (2-5×10^10) (1 h at RT) followed by mouse anti-M13 mAb (Serotec) (30 min on ice) and goat FITC-anti mouse (Pierce) (30 min on ice), or with purified scFv (1.25 to 40 μg/ml, routinely 10 to 15 μg/ml) (45 min on ice), followed by mouse anti-FLAG mAb M2 (Sigma) (30 min on ice) and goat FITC-anti mouse. Binding/washing buffer was TBS with or without divalent cations (1 mM Ca^2+, 1 mM Mg^2+, 0.2 mM Mn^2+). Alternatively, tumor cells were washed in 10 ml of plasma (prepared freshly from human blood anticoagulated with 50 nM D-Phe-D-Pro-D-arginyl chloromethyl ketone, PPACK, Felding-Habermann et al., J. Biol. Chem. 271: 5892-5900, 1996), resuspended in plasma and then incubated sequentially, without washing, with purified scFv (45 min on ice), followed by anti-FLAG M2 (30 min on ice) and FITC-anti mouse (30 min on ice). All samples were counter stained with propidium iodide (PI) and analyzed on a Becton-Dickinson FACScan, with live gate set to exclude PI positive cells.
# To generate therapeutic reagents that specifically react with activated αvβ3, a phage display library of single chain antibody fragments (scFv) was exploited. This library was derived from cancer patient blood lymphocyte cDNA libraries and allowed us to test the hypothesis that the expressed immune repertoire contains antibodies that recognize integrin αvβ3, and distinguish between its activated and non-activated forms. Mao et al., Proc. Natl. Acad. Sci. U.S.A 96: 6953-6958, 1999. A subtractive panning approach was designed based on variants of MDA-MB 435 human breast cancer cells. […] Apparently, these cells are selected during metastasis, as variant cells isolated from lung and bone metastases in immune deficient mice express constitutively activated αvβ3. To establish a cell population that uniformly expresses non-activated αvβ3, MDA-MB 435 parental cells were cloned by limiting dilution, and clones tested for αvβ3 functionality. […] A cell line, MDA-MB 435 Lung-Lung, was established which expressed αvβ3 in a constitutively activated form. This variant stems from a lung metastase of an immune deficient mouse whose mammary fat pad had been injected with parental MDA-MB 435 cells. […] After 5 rounds of subtracting the phage library on Parent Combo cells and panning on Lung-Lung cells, scFv clones were analyzed by flow cytometry for their ability to bind integrin αvβ3 on human tumor cells, and to distinguish between the activated and non-activated forms of the receptor (FIG. 1). […]
# T1 sequence (P08648 42-894 limits assumed): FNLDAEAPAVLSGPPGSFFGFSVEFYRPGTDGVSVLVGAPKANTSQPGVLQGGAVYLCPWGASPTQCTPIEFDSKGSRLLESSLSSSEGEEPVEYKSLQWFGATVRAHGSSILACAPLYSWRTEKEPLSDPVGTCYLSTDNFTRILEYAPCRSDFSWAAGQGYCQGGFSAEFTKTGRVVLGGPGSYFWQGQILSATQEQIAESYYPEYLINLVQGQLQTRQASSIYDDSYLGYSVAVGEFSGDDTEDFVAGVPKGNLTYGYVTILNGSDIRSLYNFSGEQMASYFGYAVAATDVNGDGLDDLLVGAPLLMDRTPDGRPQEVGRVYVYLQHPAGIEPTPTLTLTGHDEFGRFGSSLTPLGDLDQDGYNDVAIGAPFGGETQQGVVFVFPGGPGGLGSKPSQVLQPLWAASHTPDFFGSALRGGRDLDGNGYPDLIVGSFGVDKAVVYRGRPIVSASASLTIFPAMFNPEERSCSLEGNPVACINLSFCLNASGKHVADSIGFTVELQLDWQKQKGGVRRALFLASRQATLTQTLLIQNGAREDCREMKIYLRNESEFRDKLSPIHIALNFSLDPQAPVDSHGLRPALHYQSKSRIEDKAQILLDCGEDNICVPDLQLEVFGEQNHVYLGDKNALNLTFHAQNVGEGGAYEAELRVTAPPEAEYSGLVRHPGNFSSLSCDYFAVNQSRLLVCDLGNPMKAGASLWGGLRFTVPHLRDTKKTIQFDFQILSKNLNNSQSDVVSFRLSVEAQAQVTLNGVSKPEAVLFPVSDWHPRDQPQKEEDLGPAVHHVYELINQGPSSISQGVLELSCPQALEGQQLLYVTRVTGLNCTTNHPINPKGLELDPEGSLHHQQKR
# T1 sequence (P08648 895-1049 partner limits assumed): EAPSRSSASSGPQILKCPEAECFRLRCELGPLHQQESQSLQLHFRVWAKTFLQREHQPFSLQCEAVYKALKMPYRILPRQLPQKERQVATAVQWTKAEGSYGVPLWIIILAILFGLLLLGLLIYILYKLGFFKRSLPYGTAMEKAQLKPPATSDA
# T1 sequence (P05556 21-798): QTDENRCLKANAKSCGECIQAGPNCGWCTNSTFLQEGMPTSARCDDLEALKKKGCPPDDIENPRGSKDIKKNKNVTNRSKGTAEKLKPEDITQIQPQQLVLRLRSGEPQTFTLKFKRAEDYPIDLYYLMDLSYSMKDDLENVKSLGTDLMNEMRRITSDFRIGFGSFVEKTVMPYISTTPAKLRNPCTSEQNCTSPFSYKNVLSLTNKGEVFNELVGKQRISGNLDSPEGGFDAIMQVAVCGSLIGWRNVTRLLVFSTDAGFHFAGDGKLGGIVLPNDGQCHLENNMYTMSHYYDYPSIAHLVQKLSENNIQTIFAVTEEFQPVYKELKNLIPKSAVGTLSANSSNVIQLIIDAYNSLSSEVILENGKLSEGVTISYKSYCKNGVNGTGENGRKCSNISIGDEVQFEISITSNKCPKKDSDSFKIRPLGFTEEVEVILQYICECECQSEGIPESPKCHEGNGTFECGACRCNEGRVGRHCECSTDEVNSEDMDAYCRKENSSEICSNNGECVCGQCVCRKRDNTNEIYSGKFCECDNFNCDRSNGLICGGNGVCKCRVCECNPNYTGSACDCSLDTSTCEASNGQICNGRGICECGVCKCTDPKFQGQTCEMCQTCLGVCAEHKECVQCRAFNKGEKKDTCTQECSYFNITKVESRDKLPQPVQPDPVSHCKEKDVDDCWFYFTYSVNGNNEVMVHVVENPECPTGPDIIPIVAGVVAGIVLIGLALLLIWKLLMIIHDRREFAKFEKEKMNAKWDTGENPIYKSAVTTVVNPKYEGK
molecule,measurement,value
Bc-12: patient derived human scFv antibody against activated αvβ3 with RGD motif in CDR-H3; cDNA ATCC PTA-6303 (protein) scFv: MAQVQLVQSGAEVKKPGASVKVSCKASGYTFSNYGITWVRQAPGQGLEWMGWINNGNTHYAQKFQGRVTMTTDTSTSTAYMELRSLRSDDTAVYYCARDPRGDDEPYWGQGTLVTVSSGGGGSGGGGSGGGGSEIVLTQSPLSLPVTLGQPASISCRSSQNLVYSDGNTYLSWFQQRPGQSPRRLIYKVSNRDSGVPDRFSGSGSGTDFTLKISRVEAEDIGVYYCMQGTHWPPRTFGQGTKVEIKRGLGGLVDYKDDDDK,binding to α5β1,do not bind
